How the values were obtained:
[1] = biological target: T1, human PD-L1-Fc fusion protein (human, UniProt Q9NZQ7 19-239); assay: blocking ELISA, PD-1-Fc on plate as competitor, biotinylated PD-L1-Fc
T1 construct: also called human PD-L1-Fc (R&D Systems); biotinylated PD-L1-Fc fusion protein; not shown: Fc part

[2] = biological target: T1, human PD-L1-Fc fusion protein; assay: blocking ELISA, B7-1-Fc on plate as competitor, biotinylated PD-L1-Fc
[3] = biological target: T1, human PD-L1-Fc fusion protein; assay: ELISA, plate-coated human PD-L1-Fc
[4] = biological target: T1, human PD-L1-Fc fusion protein; assay: SPR, Biacore, Antibody B immobilized, PD-L1-Fc as analyte, 37 C, 1:1 model
[5] = biological target: T2, cell surface PD-L1 on MDA-MB231 cells (human, UniProt Q9NZQ7 19-290); assay: flow cytometry, Antibody B-biotin on MDA-MB231 cells, streptavidin-PE
T2 construct: Endogenous PD-L1 of a PD-L1-positive human breast adenocarcinoma cell line; also called cell surface expressed human PD-L1
T2 sequence (Q9NZQ7 19-290 limits assumed): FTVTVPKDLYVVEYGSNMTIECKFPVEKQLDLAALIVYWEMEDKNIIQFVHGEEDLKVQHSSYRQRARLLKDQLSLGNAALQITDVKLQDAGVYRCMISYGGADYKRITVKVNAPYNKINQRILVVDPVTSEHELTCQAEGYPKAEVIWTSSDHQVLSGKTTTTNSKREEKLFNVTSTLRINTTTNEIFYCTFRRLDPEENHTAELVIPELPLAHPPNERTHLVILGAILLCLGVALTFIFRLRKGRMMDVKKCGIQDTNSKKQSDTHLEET

[6] = biological target: T3, cynomolgus monkey PD-L1-Fc fusion protein (cynomolgus monkey, UniProt G7PSE7 19-238); assay: SPR, Biacore, Antibody B immobilized, cyno PD-L1-Fc as analyte, 37 C, 1:1 model
T3 construct: also called Cyno PD-L1; not shown: Fc part
T3 sequence (G7PSE7 entry or part of it): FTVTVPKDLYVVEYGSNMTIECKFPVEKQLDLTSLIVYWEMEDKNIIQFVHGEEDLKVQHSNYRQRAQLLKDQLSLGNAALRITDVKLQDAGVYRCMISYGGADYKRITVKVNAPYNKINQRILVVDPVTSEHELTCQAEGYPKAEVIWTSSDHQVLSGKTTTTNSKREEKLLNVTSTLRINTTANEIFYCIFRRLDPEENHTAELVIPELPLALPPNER

[7] = biological target: T4, human Tim-3, full-length, on cells (human, UniProt Q8TDQ0 22-301); assay: flow cytometry, A488-labelled antibody on Tim-3 DO11.10 cells
T4 construct: whole, on cells; also called cell surface Tim-3
T4 sequence (looked up): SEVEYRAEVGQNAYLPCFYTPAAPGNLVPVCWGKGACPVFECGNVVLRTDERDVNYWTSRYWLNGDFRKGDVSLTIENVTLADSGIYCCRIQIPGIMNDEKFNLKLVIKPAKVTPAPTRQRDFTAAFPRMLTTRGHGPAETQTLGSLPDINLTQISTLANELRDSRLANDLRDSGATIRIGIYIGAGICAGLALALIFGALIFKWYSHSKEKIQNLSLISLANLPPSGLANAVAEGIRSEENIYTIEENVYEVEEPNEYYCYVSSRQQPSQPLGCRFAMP

[8] = biological target: T5, human Tim-3-Fc (R&D Systems) (human, UniProt Q8TDQ0 22-130); assay: MSD blocking assay, galectin-9-biotin on streptavidin plate as competitor, ruthenylated Tim-3-Fc
T5 construct: Bought reagent; Biotinylated in the phosphatidylserine assay, ruthenylated (sulfo-tag) in the galectin-9 assay, plain and plate-coated in the ELISA and the CEACAM1 assay; also called hTIM-3-Fc; hTIM-3-Fc Biotin; not shown: Fc part of the bought fusion protein
T5 sequence: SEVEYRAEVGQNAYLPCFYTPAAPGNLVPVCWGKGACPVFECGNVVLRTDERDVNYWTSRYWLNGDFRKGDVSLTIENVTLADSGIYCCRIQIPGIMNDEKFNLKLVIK

[9] = biological target: T5, human Tim-3-Fc (R&D Systems); assay: flow cytometry, block of hTIM-3-Fc Biotin binding to phosphatidylserine on camptothecin-treated DO11.10 cells
[10] = biological target: T5, human Tim-3-Fc (R&D Systems); assay: ELISA, plate-coated human Tim-3-Fc
[11] = biological target: T6, human Tim-3-IgV-Fc single arm antigen (SAG) (human); assay: SPR, Biacore T100, antibody captured on Human Fab Binder, Tim-3 SAG as analyte, 1:1 Langmuir with mass transport
T6 construct: the SAG construct itself is not described further; also called Tim-3 SAG; not shown: Fc part of the antigen arm, any linker to it, and the second antigen-free Fc arm

[12] = biological target: T7, hTim-3-IgV-FLAG (human, UniProt Q8TDQ0 22-130, glycosylation at Asn99 (density seen in the crystal structure)); assay: SPR, Biacore T200, Fab captured, hTim-3-IgV-FLAG as analyte, 25 C, 1:1 binding
T7 construct: Purified from 293HEK supernatant on anti-FLAG resin; also called hTim-3-FLAG; not shown: FLAG tag
T7 sequence: T5 sequence

T1 sequence (Q9NZQ7 19-239 limits assumed): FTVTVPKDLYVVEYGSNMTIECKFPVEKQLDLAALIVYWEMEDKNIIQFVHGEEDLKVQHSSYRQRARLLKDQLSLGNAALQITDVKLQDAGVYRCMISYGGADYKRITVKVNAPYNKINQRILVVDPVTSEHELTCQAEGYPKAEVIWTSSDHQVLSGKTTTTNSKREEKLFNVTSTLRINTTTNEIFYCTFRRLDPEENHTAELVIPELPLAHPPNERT

B1: Antibody B (Anti-PD-L1 Antibody) (antibody, human IgG1, lambda, V domains shown)
VH: QVQLVQSGAEVKKPGSSVKVSCKASGGTFSSYAISWVRQAPGQGLEWMGGIIPIFGTANYAQKFQGRVTITADKSTSTAYMELSSLRSEDTAVYYCARSPDYSPYYYYGMDVWGQGTTVTVSS
VL: QSVLTQPPSASGTPGQRVTISCSGSSSNIGSNTVNWYQQLPGTAPKLLIYGNSNRPSGVPDRFSGSKSGTSASLAISGLQSEDEADYYCQSYDSSLSGSVFGGGIKLTVLG
notes: Full IgG; also called Lilly PD-L1 antibody Antibody B; Antibody B-biotin
In the case of B1, the IC50 [1] is reported as 0.95 nM, the IC50 [2] is reported as 2.4 nM and the EC50 [3] is reported as 0.11 nM. The Kd [4] was 0.082 nM, the koff [4] was 0.000114 s⁻¹ and the kon [4] was 1.4e+06 M⁻¹ s⁻¹. It also gave an EC50 [5] of 0.14 nM, a Kd [6] of 0.122 nM and a koff [6] of 0.000184 s⁻¹. It also gave a kon [6] of 1.51e+06 M⁻¹ s⁻¹.

B2: Antibody A (anti-Tim-3 Antibody) (antibody, human IgG1, kappa, V domains shown)
VH: EVQLLESGGGLVQPGGSLRLSCAASGFTFSSYYMSWVRQAPGKGLEWVSAISGSGGSTYYADSVKGRFTISRDNSKNTLYLQMNSLRAEDTAVYYCARYARTAFDLWGQGTLVTVSS
VL: DIVMTQSPSSLSASVGDGVTITCQASQDIYNYLNWYQQKPGKAPKLLIYAASSLQSGVPSRFSGSGSGTDFTLTISSLQPEDFATYYCQQANSFPPTFGQGTKLEIKR
notes: Full IgG; also called anti-human Tim-3 antibody
B2 showed an EC50 [7] of 0.09 nM, an IC50 [8] of 5.6 nM and an IC50 [9] of 0.32 nM. For the same binder, the EC50 [10] was 0.0207 nM, the Kd [11] was 0.398 nM and the koff [11] was 0.000927 s⁻¹. It also gave a kon [11] of 2.33e+06 M⁻¹ s⁻¹.

B3: Antibody A-Fab (Fab, V domains shown)
VH: B2 VH
VL: B2 VL
notes: Made by clipping Antibody A with immobilized papain; also called Fab for Antibody A
For B3, the Kd [12] was 7.92 nM, the koff [12] was 0.00286 s⁻¹ and the kon [12] was 362000 M⁻¹ s⁻¹.
